Assay [1] addresses T1, human α-synuclein pre-formed fibrils (Human Alpha Synuclein Pre-formed Fibrils Type II, StressMarq SPR-317) (human, UniProt P37840 1-140). Put plainly: sandwich ELISA, antibody coated, α-syn PFF added, 7B7-biotin detection. The method, then:
(§1) Specifically, the antibodies were diluted with PBS by six-fold serial dilution from 400 nM to 0.009 nM. The diluted antibodies were added to a 96-well plate at 100 μL/well for coating. The plate was sealed and incubated at 4° C. for 16 hours. After washing with phosphate-buffered saline with Tween® (PBS-T; 0.05% Tween® 20) five times, the plate was blocked with 5% BSA in PBS 200 μL/well at 37° C. for 2 hours. After washing with PBS-T five times, α-syn PFF (2 μg/mL, 100 μL/well in 2% BSA in PBS) was added to the plate and incubated at 37° C. for 2 hours. After washing with PBS-T five times, 7B7-biotin antibody (anti-α-syn antibody; 1 μg/mL/100 μL/well, in 2% BSA in PBS) was added and incubated at 37° C. for 2 hours. After washing with PBS-T five times, the plate was incubated with horseradish peroxidase (HRP)-bound streptavidin in PBS with 2% BSA (1:5000, 1 mg/mL stock, 20 ng/well, 100 μL/well) at 37° C. for 1 hour. After washing with PBS-T five times, 3,3′,5,5′-tetramethylbenzidine (TMB) (100 μL/well) was added and incubated at room temperature for 5 minutes. The reaction was stopped by the addition of 0.5 N H₂SO₄ (50 μL/well). Optical absorbance at 450 nm was measured by using a plate reader, with absorbance at 650 nm subtracted from the reading.
On the technique in general: An ELISA detects its analyte on a solid surface through an enzyme-linked reagent.

Assay [2] has as its target T1, human α-synuclein pre-formed fibrils …. The description is as above. Here is the method:
as §1
This is another data set of the same source.

Assay [3] has as its target human α-synuclein oligomers (Dopamine HCL Stabilized Human Recombinant Alpha Synuclein Oligomers, StressMarq … (human, UniProt P37840 1-140)). Nature of the assay: sandwich ELISA, antibody coated, oligomeric α-syn added, 7B7-biotin detection. The method, then:
Human α-syn oligomers from StressMarq (Dopamine HCL Stabilized Human Recombinant Alpha Synuclein Oligomers, SPR-466) was used as the oligomeric α-syn in the assay.
In this sandwich ELISA, test antibodies were diluted with PBS by five-fold serial dilution from 80 nM to 0.005 nM. The serially diluted antibodies were added to a 96-well plate at 100 μL/well for coating. The plate was sealed and incubated at 4° C. for 16 hours. After washing with PBS-T five times, the plate was blocked with 5% BSA in PBS 200 μL/well at 37° C. for 2 hours. After washing with PBS-T five times, oligomeric α-syn (2 μg/mL, 100 μL/well in 2% BSA in PBS) was added and incubated at 37° C. for 2 hours. After washing with PBS-T five times, 7B7-biotin antibody (1 μg/mL, 100 μL/well, in 2% BSA in PBS) were added and incubated at 37° C. for 2 hours. After washing with PBS-T five times, the plate was incubated with Streptavidin-HRP in 2% BSA in PBS (1:5000, 1 mg/mL stock, 20 ng/well, 100 μL/well) at 37° C. for 1 hour. After washing with PBS-T five times, TMB (100 μL/well) was added and incubated at RT for 5 minutes. The reaction was stopped by the addition of 0.5 N H₂SO₄ (50 μL/well).

The target in assay [4] is T1, human α-synuclein pre-formed fibrils …. Nature of the assay: sandwich ELISA, antibody coated, α-syn PFF added, 7B7-biotin detection. Here is the method:
as §1
The source holds these as a separate data set.

Assay [5] has the same target. Put plainly: SPR Biacore T200, antibody captured on Protein A chip, α-syn PFF analyte, 1:1 model. Here is the method: The equipment used was Biacore® (GE Healthcare, Model T200). Protein A (GE Healthcare, Cat: 29-1275-56) was used as a chip, 10 mM glycine-HCl pH 1.5 (GE Healthcare, Cat: BR-1003-54) was used as a regeneration buffer, and HBS-EP was used as a running buffer and an analyte dilution and sample dilution buffer. […] A capture phase was carried out at a contact time of 60 seconds and a flow rate of 30 μL/min was used for a stabilization period of 60 seconds, with the target resonance units (RU) of fibril set to 10 (theoretical). In an association phase, the association time was set to 60 seconds and a flow rate was set to 60 μL/min. In a dissociation phase, the dissociation time was set to 180 seconds, and a flow rate was set to 60 μL/min. In a regeneration phase, the flow rate was set to 30 μL/min, and the regeneration time was set to 60 seconds. A 1:1 binding model was used for fitting, and the Biacore® T200 Evaluation software (GE Healthcare) was used for the evaluation.
(In general: Surface plasmon resonance follows binding to a sensor surface in real time, without labels.)

For assay [6] the target is unchanged. Nature of the assay: sandwich ELISA, antibody coated, α-syn PFF added, 7B7-biotin detection. The method, then:
as §1
The source holds these as a separate data set.

Read-outs that look alike come from different tables or passages of the source.

B1: hu1E4(V2_VL2) (antibody, human IgG1, V domains shown)
VH: QVQLVQSGAEVKKPGASVKVSCKASGYTFTNYLIEWVRQAPGQGLEWIGVINPGSGGTNYNEKFKGKVTLTADKSISTAYMELSRLRSDDTAVYYCASGNYDTYWGQGTLVTVSS
VL: DVVMTQTPLSLSVTPGQPASISCRSSQSLVHSNGNTYLHWYLQKPGQSPQLLIYKVSNRFSGVPDRFSGSGSGTDFTLKISRVEAEDVGVYYCSQSTHVPRTFGQGTKLEIK
notes: Monospecific; human IgG1 and kappa constant regions
Regarding B1, the half-maximal effective concentration (EC50) (usually the concentration at which the effect is half-maximal) in assay [1] amounted to 0.57 nM.

B2: recombinant mouse 1E4 (antibody, V domains shown)
VH: QVQLQQSGAELVRPGTSVKVSCKASGYAFTNYLIEWVKQRPGQGLEWIGVINPGSGGTNYNEKFKGKATLTADKSSSTAYMQLSSLTSDDSAVYFCASGNYDTYWGQGTLVTVSA
VL: DVVMTQTPLSLPVSLGDQASISCRSSQSLVHSNGNTYLHWYLQKPGQSPKLLIYKVSNRFSGVPDRFSGSGSGTDFTLKISRVEAEDLGVYFCSQSTHVPRTFGGGTKLEIK
notes: also called rm1E4
B2: the EC50 in assay [2] amounted to 2.59 nM.

B3: mouse hybridoma 1E4 (antibody, V domains shown)
VH: QVQLQQSGAELVRPGTSVKVSCKASGYAFTNYLIEWVKQRPGQGLEWIGVINPGSGGTNYNEKFKGKATLTADKSSSTAYMQLSSLTSDDSAVYFCASGNYDTYWGQGTLVTVSA
VL: DVVMTQTPLSLPVSLGDQASISCRSSQSLVHSNGNTYLHWYLQKPGQSPKLLIYKVSNRFSGVPDRFSGSGSGTDFTLKISRVEAEDLGVYFCSQSTHVPRTFGGGTKLEIK
notes: Mouse 1E4 made by the hybridoma; also called hy1E4; mouse 1E4 antibody
For the molecule B3, in assay [3], the concentration giving a half-maximal response (EC50) came to 6.56 nM and the Saturation point turned out to be 3.17.

B4: hu1E4(V3_VL2) (antibody, human IgG1, V domains shown)
VH: QVQLVQSGAEVKKPGASVKVSCKASGYAFTNYLIEWVKQAPGQGLEWIGVINPGSGGTNYNEKFKGKVTLTADKSISTAYMELSRLRSDDTAVYYCASGNYDTYWGQGTLVTVSS
VL: DVVMTQTPLSLSVTPGQPASISCRSSQSLVHSNGNTYLHWYLQKPGQSPQLLIYKVSNRFSGVPDRFSGSGSGTDFTLKISRVEAEDVGVYYCSQSTHVPRTFGQGTKLEIK
notes: as for B1
Take B4: the concentration giving a half-maximal response (EC50) in assay [1] was 0.577 nM.

B5: hu1E4(V7_VL2) (antibody, human IgG1, V domains shown)
VH: QVQLVQSGAEVKKPGASVKVSCKASGYAFTNYLIEWVKQAPGQGLEWMGVINPGSGGTNYNEKFKGKATLTADKSISTAYMELSRLRSDDTAVYYCASGNYDTYWGQGTLVTVSS
VL: DVVMTQTPLSLSVTPGQPASISCRSSQSLVHSNGNTYLHWYLQKPGQSPQLLIYKVSNRFSGVPDRFSGSGSGTDFTLKISRVEAEDVGVYYCSQSTHVPRTFGQGTKLEIK
notes: as for B1
On to B5, for which, in assay [1], the half-maximal effective concentration (EC50) came out at 0.339 nM.

B6: hu1E4(V3_VL2) x Grabody B (bispecific antibody, human IgG1, kappa)
heavy 1: not shown
heavy 2: not shown
light: DVVMTQTPLSLSVTPGQPASISCRSSQSLVHSNGNTYLHWYLQKPGQSPQLLIYKVSNRFSGVPDRFSGSGSGTDFTLKISRVEAEDVGVYYCSQSTHVPRTFGQGTKLEIKRTVAAPSVFIFPPSDEQLKSGTASVVCLLNNFYPREAKVQWKVDNALQSGNSQESVTEQDSKDSTYSLSSTLTLSKADYEKHKVYACEVTHQGLSSPVTKSFNRGEC
notes: also called hu1E4(V3 VL2) × Grabody B
In turn, B6 came in with an EC50 in assay [4] of 0.285 nM. In assay [5], the affinity, expressed as Kd, was 0.0982 nM; the koff (commonly a measure of how fast the partners let go of each other) was found to be 0.000992 s⁻¹; the kon – broadly, a measure of how fast the partners come together – is 1.01e+07 M⁻¹ s⁻¹.

B7: hu1E4(V5_VL4) x Grabody B (bispecific antibody, human IgG1, kappa)
heavy 1: not shown
heavy 2: not shown
light: DVVMTQSPLSLPVTLGQPASISCRSSQSLVHSNGNTYLHWYQQRPGQSPRLLIYKVSNRFSGVPDRFSGSGSGTDFTLKISRVEAEDVGVYYCSQSTHVPRTFGGGTKVEIKRTVAAPSVFIFPPSDEQLKSGTASVVCLLNNFYPREAKVQWKVDNALQSGNSQESVTEQDSKDSTYSLSSTLTLSKADYEKHKVYACEVTHQGLSSPVTKSFNRGEC
notes: also called hu1E4(V5 VL4) × Grabody B
With B7, it took 0.284 nM to reach a half-maximal effect in assay [6] (EC50). Besides, in assay [5], the Kd (as a rule, the equilibrium constant for the complex coming apart) turned out to be 0.167 nM; the koff is 0.0016 s⁻¹; the on-rate constant (kon) was found to be 9.96e+06 M⁻¹ s⁻¹.

B8: hu1E4(V5_VL5) x Grabody B (bispecific antibody, human IgG1, kappa)
heavy 1: not shown
heavy 2: not shown
light: DVVMTQSPLSLPVTLGQPASISCRSSQSLVHSNGNTYLHWYQQRPGQSPRLLIYKVSNRFSGVPDRFSGSGSGTDFTLKISRVEAEDVGVYFCSQSTHVPRTFGGGTKVEIKRTVAAPSVFIFPPSDEQLKSGTASVVCLLNNFYPREAKVQWKVDNALQSGNSQESVTEQDSKDSTYSLSSTLTLSKADYEKHKVYACEVTHQGLSSPVTKSFNRGEC
notes: also called hu1E4(V5 VL5) × Grabody B
In turn, B8 gave a concentration giving a half-maximal response (EC50) in assay [6] of 0.215 nM. In assay [5], this molecule gave a Kd of 0.059 nM, a koff of 0.00067 s⁻¹ and a kon of 1.14e+07 M⁻¹ s⁻¹.

B9: hu1E4(V5_VL3) x Grabody B (bispecific antibody, human IgG1, kappa)
heavy 1: not shown
heavy 2: not shown
light: DVVMTQSPLSLPVTLGQPASISCRSSQSLVHSNGNTYLHWFQQRPGQSPRRLIYKVSNRFSGVPDRFSGSGSGTDFTLKISRVEAEDVGVYYCSQSTHVPRTFGGGTKVEIKRTVAAPSVFIFPPSDEQLKSGTASVVCLLNNFYPREAKVQWKVDNALQSGNSQESVTEQDSKDSTYSLSSTLTLSKADYEKHKVYACEVTHQGLSSPVTKSFNRGEC
notes: also called hu1E4(V5 VL3) × Grabody B
Molecule B9 displayed an EC50 in assay [6] of 1.1 nM.

B10: hu1E4(V6_VL3) x Grabody B (bispecific antibody, human IgG1, kappa)
heavy 1: not shown
heavy 2: not shown
light: DVVMTQSPLSLPVTLGQPASISCRSSQSLVHSNGNTYLHWFQQRPGQSPRRLIYKVSNRFSGVPDRFSGSGSGTDFTLKISRVEAEDVGVYYCSQSTHVPRTFGGGTKVEIKRTVAAPSVFIFPPSDEQLKSGTASVVCLLNNFYPREAKVQWKVDNALQSGNSQESVTEQDSKDSTYSLSSTLTLSKADYEKHKVYACEVTHQGLSSPVTKSFNRGEC
notes: also called hu1E4(V6 VL3) × Grabody B
The molecule B10 gave an EC50 in assay [6] of 1.12 nM.

B11: hu1E4(V7_VL2) x Grabody B (bispecific antibody, human IgG1, kappa)
heavy 1: not shown
heavy 2: not shown
light: DVVMTQTPLSLSVTPGQPASISCRSSQSLVHSNGNTYLHWYLQKPGQSPQLLIYKVSNRFSGVPDRFSGSGSGTDFTLKISRVEAEDVGVYYCSQSTHVPRTFGQGTKLEIKRTVAAPSVFIFPPSDEQLKSGTASVVCLLNNFYPREAKVQWKVDNALQSGNSQESVTEQDSKDSTYSLSSTLTLSKADYEKHKVYACEVTHQGLSSPVTKSFNRGEC
notes: also called hu1E4(V7 VL2) × Grabody B
On to B11, for which the concentration for a half-maximal effect (EC50) in assay [4] was 0.418 nM. In assay [5], the Kd was found to be 0.143 nM, the koff is 0.0015 s⁻¹ and the kon was 1.05e+07 M⁻¹ s⁻¹.

B12: hu1E4(V2_VL2) x Grabody B (bispecific antibody, human IgG1, kappa)
heavy 1: not shown
heavy 2: not shown
light: DVVMTQTPLSLSVTPGQPASISCRSSQSLVHSNGNTYLHWYLQKPGQSPQLLIYKVSNRFSGVPDRFSGSGSGTDFTLKISRVEAEDVGVYYCSQSTHVPRTFGQGTKLEIKRTVAAPSVFIFPPSDEQLKSGTASVVCLLNNFYPREAKVQWKVDNALQSGNSQESVTEQDSKDSTYSLSSTLTLSKADYEKHKVYACEVTHQGLSSPVTKSFNRGEC
notes: also called hu1E4(V2 VL2) × Grabody B
B12 registered a half-maximal effective concentration (EC50) in assay [4] of 0.364 nM.

For the origin of these results see patent US20220380446A1 (ABL BIO, published 2022).
